Source: US20240026407A1, “MODIFICATION OF SAPONINS” (GLAXOSMITHKLINE BIOLOGICALS SA, priority 2020, published 2024)

B1: 823 (protein, listed as Streptomyces fulvissimus)
chain: MAAASSTSNSKALRREAVDTALAALGLDDKTRLLAGQDLWSLPALPAIGLRSLVMSDGPIGVRGVRWTAADPSVALPSPTALAATWDPELARRAGRLLAQEARRKGVHVLLAPTVNLHRTPLGGRHFEAYSEDPYLTGEIGTGYVRGVQDGGVATTVKHFVANDAETDRFTVNNTVAPRPLRELYLAPFERIVRNAHPWGIMAAYNQVNGSTMTEHRYLQNAVLRGEWGFDGFIVSDWLAARTTVGAITGGLDAAMPGPRTVYGETLADAVRAGEVDEKIVDLAVRNILLLAARVGALESAPPAVPAAALPATVDGDALAREIARRSFVLVRNEVHDGADALPLAPGTTVALSGALARDARVLGGGSALVFPDHVVSPLDGLTAALPEGALTYAVGADPSDELAIAEAGFDLTAVCRDASGAVLATVPLPSGQIQWIGADLPDGVTHDTLDTVEITGTFTPRASGEHTFGTRGTGSFALTVDDRPLFDGTQDRAPGTDPLGAFFNEPVERGRLPLTEGAPVRVSLSHRPGPGTGHPLKGVAFSLVHLAPLRDPDELIAEAVEAARSADTAIVVVGTTERVESEGFDRTDLKLPGHQDALVHAVAAVNPRTVVVVNSGSPVELPWRNEVAAVLLSWFPGQEAGHALADVLRGQEEPGGRLPTTWPVALADVPVSATTPTNGELPYTEGVFIGYRAWEKAGTTPAYAFGHGLGYTTWEYEDVSATPDSVTVRVRNTGSRPGSDTVQIYLAPAPAPDAPERPARWLAGFARVTAAPGGSVEVTVPVEARAYQVWDEEAYGWKTVPGTYEVQAARSLADVRATTTVDITA
B2: 810 (protein, listed as Cutibacterium avidum)
chain: MTPAEITDLISQLTLEEKASLCSGGDSWHLQTVEKLGIPGPMVTDGPHGLRKVADGSMAGIYDSVPATCFPTAAGLASTWDPELVHDIGVALGEETRAESVSVLLGPGINMKRSPLCGRNFEYFSEDPVLAGTLATELVRGIQSQGVGTSLKHFAANNQETDRLRVNAEIDERTLREIYLPAFEMVVKQADPWTVMCSYNAINGVYSSQNRWLLTELLHEEWGYKGLVISDWGAVVNRVEGLRAGLDLEMPGDAPRNDARIVEAVRSGDLDEEILDTAVARILSLIARASAAMADPGSYDIEAHHQLARRAAAASVVLLKNDGDVLPLIDPDDVVVIGEFARTPRYQGAGSSKVNPTRVDTALDSLRQTWDDVPFAPGFTLTDHPDPQLADEAVSLSRGKTAVLFLGLPAVAESEGYDRTNTDLPTDQIDLLARVRKVASHTIVVLSNGSSVGTAEWDDQADAIVECWLGGQASGSGVIDVLTGKVNPSGHLAETITRKLSDIPAQLNFPGEFQHVTYGEGRYIGYRGLDATEREVAYPFGHGLSYTTFAYCDLDLLVRPVSDETAQDETVLTVSFTVSNTGDRAGATVPQVYLGFPDATVDRCVRELKAFLRVELDPGESRSITIDLTRRDLSYWDILLHSWTVEPGTVRVEVGISSRDLPLTGEVILDAPTVRHPLRRDSTVAEWMDADEEFAAKVRRATEQTGIDLDSDPTTAAFILAMPAYKMLQMAPIMTPEELDKMLGD
B3: 825 (protein, listed as Bifidobacterium bohemicum)
chain: MSEQNSERKATLPQAKDLSVEEQSALTSGTNPWSIGRVEGKGLPNYTITDGPHGLRKARDLDGMDVDAAVPATCFPPAAGMSSSWNPELIKKTGEAMGEECVQEQVAVILGPGVNIKRNPLGGRCFEFWSEDPYLAGHEAIGEVEGIQSKGIGTSLKHFAANNQETDRLRVNARISERAMREIYLPAFEHIIKNAQPWTVMCSYNRINGEYASQNSWLLTDVLRKEWGFKGIVMSDWGAVHDRAAALNAGLNLEMPPTHTDDKIVQAVRDGQVKPEQLEAMSQGMIDLVAKTQPAMEKGAAGYRYDVDEHDEIAREAAREAMVLLKNEDGLLPVKPGTKLAVIGEFARTPRYQGAGSSLINPNKLTSFLDALKDRGVEAEFAPGFTLDGDEQSQELTDEAVNAAESADTVLLFIGLPAEAESEGFDRTTLDIPAKQIEVLKAVSAVNKNVVVILSNGSVVSMPWADQAKSILECWLLGQAGGAATADVVFGDVNPSGKLAQTIVNNLDDDPSMLNWPGEEGHVDYGEGVFVGYRYYDSFHKAVTYPFGYGLSYTTFDISEVNAQKSGPQSVHVTAMVTNTGSMAGAEVVQVYVAPPACRVDRPVHELKAFKKVFLEPGQSQEVSFDLDSRAFAYWSERFEDWKVEGGSYGIEVGDSSRSIAQTVPVQLDDDGKRMKLTKWSTYGEWREDPDGNKILDKVISELEAKYGHAIIPDSQLIIMFLKSAPLGGMSMVLGANEAQDICERALAEYAKIGR
B4: 874 (protein)
chain: MSEQTSSSTYPSVNDLSLEEKASLTSGGDAWHLQPIEERGIPGYMITDGPHGLRKTAGDTGAIDLEHTVPATCFPPAAGMSSTWNPELVEEVGQAMAEECIQEKVAVILGPGVNIKRNPLGGRCFEYWSEDPYLAGHEAVGIVKGVQSKGVGTSLKHFAVNNQETDRLRIDARVSQRALREIYLPAFEHIVKTAQPWTVMCAYNRINGVYAAQNRWLLTDVLRKEWGFKGIVMSDWGADHDRVASLNAGLNLEMPPSFTDDQIVSAARDGRISPKQLDDMAQGMIGLVNKTRQAMSVEDYRFDAQVHDDIARRAAAESMVLLKNDEHILPLSKNARVAVIGEFARTPRYQGGGSSHITPTQLTSLLDALQQRGIEYDFAPGFTLEDGEQEQSLVDEAVNIASKADAVVMCLGLPEYAESEGFDRTSLDIPAKQLELLSKVRESNANVVVLLSNGSVVSLTPWQDQAKAVVETWLLGQSGGGAIADMLFGDVNPSGKLSQTIPLNILDDPSMLNWPGEEGHVDYGEGVFVGYRYYDTYAKEVAYPFGFGLSYSDFSIDNVSVERTGANTACVRATVTNVSQTAGAQTVQIYVAPGRSEVARPVHELKGFAKVFLEAGESKEISIDLDERAFAYWSERFNDWHIEAGTYGIEVATSSRDIVERLDIELEGDGKSLPLNEWSNMSEWRKDPVGGPIVKRMFEEGRDGRIPALPENNLGAELFLDAMPINSMSVLLGKDGKVLTQFLLDEYAKETDGLH
modifications: Bifidobacterium tsurumiense
B5: 824 (protein, listed as Pestalotiopsis fici)
chain: MMTTDIEAVLKSLTLEEKISLLAGQNFWETVPVPGKVPHIKTSDGPNGARGADFTGGTRAACFPAASNVAATFDLDIANRIGQALAEETQSKGARCLLAPTTCIHRHPLGGRNFESFSEDPLLSGKLASQVIQGVQSKGVAATIKHFAANEQETERMSVDETISERALREIYLRPFEIAVKEAKPWAVMTAYNCVNGEHCDSNAFNFKVLREEWGWKGLVMSDWGGTNSTAEALNAGLDLEMPGPTNRRKIPDVLAAIKEGKTTERAIDDRARAVLEFIDRLKAFEDPTIPPEQAINKPEHQALIREAGAKGCVLLKNDNGVLPLSKDKVKGKKVAVFGLAKTPLAHGGGSASVNAHYKIAPWDALQEAVGDSAELVYSQGAHTQRILLPIGEDKSAGSIVGLDGKPGFTLQVFDNATQAIEETTHGHPSSSISPLGSKATLYKILEFVGDFTPTESGSHYLGCTGLGLTQVYVNDKLVYDQQKASPDAMGFLFGAISEDEFTYPFTAGNAYRIRVRSLPPIDVPGLEILNGRSGVRLGLQLASEHDADLQGEAVALAKDADYALVFTGHDPQWETEGQDQESFNLPRKGTQDALISAVAKVNPNTVVINSTGVAIALPWLEQVSSLVHAGFPGQECGNSIVDVITGAVNPEGRLPMSFPKRLEDAPAYGNFPGEYVNGQLKVEYKEGVFVGYRHYDRIGRDKVNFAFGHGLSYTTFATDSLRVSRKSETEFSASVNVTNTGKTQGGTLVQLYAGNATTSPEHPIKGLVAFKKIRLEPGQTQTVDLAVAARDLGFFDESRGQWVVPAGQYDFSLGESALDIIQTVKVAVEKELTSAP
B6: 882 (protein, listed as Acidipropionibacterium acidipropionici)
chain: MAESPIQSLSMRSLSTEQKAALTSGADFWHTESCAPLGLPAIMLTDGPHGLRKQTGSTDMLGLGSSVPATCFPPAVGLGSSWDVDLIHRVGAALGAEASIEGVAVLLGPAINIKRSPLCGRNFEYISEDPLVAGTLGAAMVEGIQSRAVGACVKHFAANNQETDRMRVSADVDPRALHEIYLRAFEQVVRRAEPWMVMCSYNRINGVPASQDHWLLTDLLRGQWGFDRVVVSDWGAVSDRVASLSAGLDLEMPGTAGRTDAQILAALASGTLDEETLDSAAARVVTLLRRAAVGAGEVSGPLDVDAHHRLAREAAARSIVLLRNEVQRSETTGDEGALLPLRPDARIAVIGAFAEQPRYQGAGSSRINPTRLDTALAEIRALASGEVSYSPGFRLTPESVGPAEELRRDAAEAASQAEVAVVFLGLGDDAESEGFDRTGIDLSADQLALLDDVLAANPNTVVVLSNGAVVALPFADRVPAILEAWLGGQAGGGGVADVLFGRVNPSGRLTETIPKRLADSPAYLDFPGEHGHVRYGEGIFVGYRWYDARELEVAFPFGHGLSYTTFSYGQASAALDEDGNITVRLPVTNTGAVAGREVVQAYVSLPGSAVQRPPRELKGFVVVEAEPGQTVEAEMLIRREDLAYWDLRIDRWRVEAGTYRIDVAASSRDIRSSVEVVVPDGDAPIPLNWDSTLGELMAHPVAGPALAQAMAGALEGFAGAGDLMPAGAMAQMAGSLPLRALLTLGGDAVTPETLNQLIVLANGSPRK

What was measured:
Type in all cases: biochemical, Quillaja saponaria
[1] = Experiment 5-3: screening of additional glucosidases for deglycosylation with QS-18 in treated bark extract (80%) at pH 6 and 35 deg C; details: TBE 80% (QS-21 approx. 4 g/L), pH 6, 35 deg C; UV HPLC
Method: Experiment 5-1 was repeated, replacing CBE with Treated Bark Extract (TBE) at pH 6. TBE was prepared from CBE by PVPP treatment and concentration, to provide TBE with a QS-21 concentration of approximately 4 g/L. TBE was adjusted to pH 6 by dropwise addition of 2M NaOH with stirring.

[2] = Experiment 5-2: screening of additional glucosidases for deglycosylation with QS-18 in crude bark extract (80%) at pH 6 and 35 deg C; details: CBE 80%, pH 6, 35 deg C, 18 hours; UV HPLC
In short: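 Deglycosylation of QS-18 was monitored by UV HPLC after MeCN/AcOH quench with hexanophenone. The reaction ran 18 hours at 35 deg C, shaking, combining clarified pH 6 lysate with crude bark extract neutralised to pH 6 by NaOH.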

[3] = Experiment 5-1: screening of additional glucosidases for deglycosylation with purified QS-18 (0.04 mg/ml) at pH 7.5 and 30 deg C; details: pH 7.5, 30 degrees C, 18 hours, LCMS/MS
Method: The 94 additional genes, together with positive control (DNA encoding SEQ ID No. 262) and negative control, were transformed, expressed, lysed and reacted in the same manner as described above for Experiment 4-1, except the reaction was incubated at 30 degrees C. for 18 hours.
Samples were analysed by LCMS/MS according to the procedure in Experiment 4-1.

| Molecule | Experiment 5-3 % conv [1] | Experiment 5-2 % conv [2] | Experiment 5-1 % conv [3] |
| --- | --- | --- | --- |
| B1 | <0.5% | <0.5% | 23.1% |
| B2 | <0.5% | <0.5% | 22.7% |
| B3 | <0.5% | <0.5% | 24.5% |
| B4 | <0.5% | <0.5% | 29.4% |
| B5 | <0.5% | <0.5% | 23.5% |
| B6 | <0.5% | <0.5% | 31.4% |
